Results taken from US20240316143A1, “THERAPEUTIC AGENTS AND/OR PHARMACEUTICAL COMPOSITIONS FOR NEUROCOGNITIVE DISORDERS” (priority 2023, published 2024).
Square brackets hold non-standard residues; d marks the D form. Ends that are not written are not given here. pGlu = O=C1CC[C@@H](C(=O)O)N1

Experiments:
[1] = system: aged rats and AD model rats
Description: The arginine vasopressin (AVP) concentration and AQP4 concentration in the brain are assayed with aged rats and AD model rats. Between placebo groups and intranasal AVP spray groups, the expression amount of AQP4 is assessed and simultaneously amyloid 3 (AB) proteins (and/or tau proteins) are assayed. The assays of AQP4 and AB are carried out with an immunofluorescent-antibody assay. The measured concentration of each of AB (and/or tau) is compared (throughout all the brain and each site) at each time point, i.e., prior to administration, at one week after administration, at one month after administration, and at three months after administration.
In this assay, the comparisons are carried out between the above groups and intravascularly AVP received groups.

V1aR receptor (V1aR) = V1aR receptor (V1aR) (Homo sapiens, UniProt P37288); assay: V1aR agonist activity of AVP fragments compared with AVP; settings: no method or data given
V1aR receptor (V1aR), sequence (P37288 whole entry, species assumed, the tested form may be a part): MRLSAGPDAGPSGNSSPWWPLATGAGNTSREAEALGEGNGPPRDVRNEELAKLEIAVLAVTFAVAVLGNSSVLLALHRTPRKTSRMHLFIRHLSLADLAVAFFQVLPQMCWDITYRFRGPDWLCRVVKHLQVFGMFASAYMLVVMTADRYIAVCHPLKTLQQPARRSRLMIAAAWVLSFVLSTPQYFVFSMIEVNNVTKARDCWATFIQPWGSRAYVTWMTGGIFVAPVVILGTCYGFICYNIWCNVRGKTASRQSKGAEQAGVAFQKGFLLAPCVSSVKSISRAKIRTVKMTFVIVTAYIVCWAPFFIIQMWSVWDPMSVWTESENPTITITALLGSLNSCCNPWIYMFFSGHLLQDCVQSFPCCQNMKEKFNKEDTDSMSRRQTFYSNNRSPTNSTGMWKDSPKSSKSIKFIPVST

Substance | V1aR agonist activity relative to original AVP (V1aR receptor (V1aR)) | also measured
8-arginine-vasopressin [AVP] |  | correlation between the concentration of AVP in the brain and the expression amount of AQP4 ([1]; aged rats and AD model rats, intranasal AVP spray vs placebo, immunofluorescent-antibody assay): There is a correlation; correlation of brain AVP concentration and AQP4 expression with the amount of AB reduction ([1]; aged rats and AD model rats, prior to, one week, one month and three months after administration): correlate with the amount of AB reduction; effectiveness of intranasal AVP administration ([1]; compared with placebo groups and intravascularly AVP received groups): effective
AVP (4-8): AVP fragment (QNCPR; Arg-vasopressin; UniProt P01185 23-27, looked up, fragment) | several-fold superior to original AVP | 
AVP (4-9): AVP fragment (QNCPRG; ends and bridges not checked; UniProt P01185 23-28, looked up, fragment) | several-fold superior to original AVP | 
AVP (5-8): AVP fragment (NCPR; Arg-vasopressin; UniProt P01185 24-27, looked up, fragment) | several-fold superior to original AVP | 
AVP (5-9): AVP fragment (NCPRG; ends and bridges not checked; UniProt P01185 24-28, looked up, fragment) | several-fold superior to original AVP | 
pGlu-Asn-Ser-Pro-Arg-Gly-NH2 acetate ([pGlu]NSPRG-NH2; also: acetate salt) [NC1900, AVP fragment] | several-fold superior to original AVP | 
